From article PMC5137437
Where two headings read alike, the source gives them in different places.

Tests used:
[1] = target: T1, Klf4 ZnF1-3 WT (E446) (Mus musculus, UniProt Q60793 396-483); test: X-ray crystallography
[2] = target: T2, Klf4 ZnF1-3 E446P (Mus musculus, UniProt Q60793 396-483, E446P); test: X-ray crystallography
[3] = target: T2, Klf4 ZnF1-3 E446P; test: fluorescence polarization
[4] = target: T1, Klf4 ZnF1-3 WT (E446); test: fluorescence polarization
[5] = target: T2, Klf4 ZnF1-3 E446P; test: fluorescence polarization; remark: listed apart in the source
[6] = target: T2, Klf4 ZnF1-3 E446P; test: X-ray crystallography; remark: listed apart in the source
[7] = target: T1, Klf4 ZnF1-3 WT (E446); test: fluorescence polarization; remark: listed apart in the source
[8] = target: Klf4 ZnF1-3 E446D (Mus musculus, UniProt Q60793 396-483, E446D); test: X-ray crystallography
Sequence of Klf4 ZnF1-3 E446D (Q60793 396-483 E446D): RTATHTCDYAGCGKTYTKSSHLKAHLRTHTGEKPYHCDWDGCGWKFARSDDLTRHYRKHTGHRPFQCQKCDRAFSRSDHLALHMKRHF

[9] = target: T1, Klf4 ZnF1-3 WT (E446); test: X-ray crystallography; remark: listed apart in the source

T1 sequence (Q60793 396-483): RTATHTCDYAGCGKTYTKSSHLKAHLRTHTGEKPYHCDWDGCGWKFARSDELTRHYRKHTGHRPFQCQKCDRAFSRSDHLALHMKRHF
T2 sequence (Q60793 396-483 E446P): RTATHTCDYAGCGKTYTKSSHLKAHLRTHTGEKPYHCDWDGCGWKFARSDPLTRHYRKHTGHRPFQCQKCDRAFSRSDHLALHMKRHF

B1: TpG/5mCpA crystal duplex (dsDNA)
DNA 1: GAGGTGTGGC
DNA 2: GCCACACCTC
modifications: 5mC at position 5 of strand 2
B1: binds [1].

B2: TpG crystal duplex (E446P complex) (dsDNA)
DNA 1: GAGGTGTGGC
DNA 2: GCCACACCTC
modifications: methylation of the opposite-strand CpA not stated in the material
B2: binds [2].

B3: CpG unmodified FP probe (dsDNA)
DNA 1: GAGGCGTGGC
DNA 2: TTGCCACGCCTC
B3 was tested, and the binding signal [3] was ~4 fold tighter than P1 with N1.

B4: 5mCpG hemimethylated FP probe (dsDNA)
DNA 1: GAGGCGTGGC
DNA 2: TTGCCACGCCTC
modifications: 5mC at position 5 of strand 1; strand 2 unmethylated
With B4 the binding signal [4] was 1.5 fold tighter than P1 with N1 and the Kd [5] was < 5 nM.

B5: 5mCpG/5mCpG crystal duplex (dsDNA)
DNA 1: GAGGCGTGGC
DNA 2: GCCACGCCTC
modifications: 5mC at position 5 of strand 1 and position 5 of strand 2
B5: binds [6].

B6: TpG FP probe (dsDNA)
DNA 1: GAGGTGTGGC
DNA 2: TTGCCACACCTC
B6: binds [7].

B7: CpG/CpG crystal duplex (dsDNA)
DNA 1: GAGGCGTGGC
DNA 2: GCCACGCCTC
B7: binds [8].

B8: TpG/CpA crystal duplex (dsDNA)
DNA 1: GAGGTGTGGC
DNA 2: GCCACACCTC
B8: binds [9].
